The values that follow come from patent publication US20160067305A1 (UNIVERSITY OF HONG KONG, published 2016).

This assay has as its target T1, FLAG-tagged SIRT1 (ectopically expressed in HEK293 cells) (UniProt Q96EB6 1-747, limits assumed).
T1 construct: Immunoprecipitated from lysate of transfected HEK293 cells; also called FLAG-SIRT1; not shown: FLAG tag
T1 sequence (looked up): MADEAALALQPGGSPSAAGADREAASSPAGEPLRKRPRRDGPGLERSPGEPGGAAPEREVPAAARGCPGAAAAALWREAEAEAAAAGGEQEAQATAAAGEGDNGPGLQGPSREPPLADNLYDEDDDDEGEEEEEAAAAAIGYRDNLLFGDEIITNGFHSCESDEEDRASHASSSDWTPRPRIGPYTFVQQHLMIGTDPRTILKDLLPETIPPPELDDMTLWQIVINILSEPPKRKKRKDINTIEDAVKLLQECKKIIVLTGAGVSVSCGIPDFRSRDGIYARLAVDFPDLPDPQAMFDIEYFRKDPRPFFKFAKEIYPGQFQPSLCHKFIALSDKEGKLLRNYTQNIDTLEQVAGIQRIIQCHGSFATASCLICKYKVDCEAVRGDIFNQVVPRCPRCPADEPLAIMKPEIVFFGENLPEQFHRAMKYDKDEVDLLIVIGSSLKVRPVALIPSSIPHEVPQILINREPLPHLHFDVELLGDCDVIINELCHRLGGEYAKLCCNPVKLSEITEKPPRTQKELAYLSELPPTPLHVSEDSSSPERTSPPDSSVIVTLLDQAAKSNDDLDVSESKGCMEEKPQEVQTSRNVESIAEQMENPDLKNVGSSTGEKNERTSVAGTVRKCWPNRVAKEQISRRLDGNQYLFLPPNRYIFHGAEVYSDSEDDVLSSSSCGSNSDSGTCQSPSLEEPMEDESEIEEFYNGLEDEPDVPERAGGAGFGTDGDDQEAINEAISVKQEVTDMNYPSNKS
Description: co-immunoprecipitation in transfected HEK293 cells, Western blot (FIG. 1F). The source says:
This was further confirmed by co-immunoprecipitation in HEK293 cells expressing FLAG-SIRT1 together with either lamin A or lamin C.
On the technique in general: In western blotting, separated proteins are transferred to a membrane and probed.

B1: lamin C (ectopically expressed in HEK293 cells) (other, UniProt P02545-2 1-572, looked up)
chain: METPSQRRATRSGAQASSTPLSPTRITRLQEKEDLQELNDRLAVYIDRVRSLETENAGLRLRITESEEVVSREVSGIKAAYEAELGDARKTLDSVAKERARLQLELSKVREEFKELKARNTKKEGDLIAAQARLKDLEALLNSKEAALSTALSEKRTLEGELHDLRGQVAKLEAALGEAKKQLQDEMLRRVDAENRLQTMKEELDFQKNIYSEELRETKRRHETRLVEIDNGKQREFESRLADALQELRAQHEDQVEQYKKELEKTYSAKLDNARQSAERNSNLVGAAHEELQQSRIRIDSLSAQLSQLQKQLAAKEAKLRDLEDSLARERDTSRRLLAEKEREMAEMRARMQQQLDEYQELLDIKLALDMEIHAYRKLLEGEEERLRLSPSPTSQRSRGRASSHSSQTQGGGSVTKKRKLESTESRSSFSQHARTSGRVAVEEVDEEGKFVRLRNKSNEDQSMGNWQIKRQNGDDPLLTYRFPPKFTLKAGQVVTIWAAGAGATHSPPTDLVWKAQNTWGCGNSLRTALINSTGEEVAMRKLVRSVTVVEDDEDEDGDDLLHHHHVSGSRR
In the case of B1, the binding result is “no binding”.
